Results taken from US20230136228A1 (LAMKAP BIO ALPHA, published 2023).

Assays:
[1] = target: T1, human CEACAM1 (human, UniProt P13688 35-526); assay: flow cytometry, MFI on transfected PEAK cells divided by MFI on WT PEAK cells
T1 construct: whole, on cells
T1 sequence (looked up): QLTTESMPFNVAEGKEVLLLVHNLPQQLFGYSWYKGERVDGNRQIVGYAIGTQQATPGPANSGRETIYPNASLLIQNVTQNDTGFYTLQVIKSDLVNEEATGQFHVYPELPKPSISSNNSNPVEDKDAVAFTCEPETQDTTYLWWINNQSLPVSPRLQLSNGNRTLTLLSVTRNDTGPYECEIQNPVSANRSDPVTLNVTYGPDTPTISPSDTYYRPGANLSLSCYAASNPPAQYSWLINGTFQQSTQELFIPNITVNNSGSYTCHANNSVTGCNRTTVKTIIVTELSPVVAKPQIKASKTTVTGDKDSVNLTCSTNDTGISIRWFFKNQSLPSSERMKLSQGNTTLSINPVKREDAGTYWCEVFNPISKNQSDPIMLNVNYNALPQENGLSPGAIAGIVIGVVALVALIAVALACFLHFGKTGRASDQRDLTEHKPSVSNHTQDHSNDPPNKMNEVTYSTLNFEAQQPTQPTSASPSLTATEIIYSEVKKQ
Description: Similarly, vectors encoding the full-length version of cyno CEACAM 5 and 6 are also used to express these proteins at the surface of PEAK and/or CHO cells. Non-transfected PEAK and/or CHO cells are used as negative control. Cells are harvested, counted, checked for viability and resuspended at 3×10⁶ cells/ml in FACS buffer (PBS 2% BSA, 0.1% NaN₃). 100 μl of the cell suspension are distributed in V-bottom 96-well plates (3×10⁵ cells/well). The supernatant is removed by centrifugation 3 minutes at 4° C., 1300 rpm and the cells incubated for 15 minutes at 4° C. with increasing concentrations of the antibody according to the invention. The antibodies carrying the anti-CEACAM5 arms to test are diluted in FACS buffer and the concentration range is 30 pM-500 nM. Cells are washed twice with cold FACS buffer and re-incubated for further 15 minutes at 4° C. with a compatible anti-human IgG secondary antibody. Cells are washed twice with cold FACS buffer and resuspended in 300 μl FACS buffer with 1:1500-diluted TOPRO-3 (Invitrogen). Fluorescence is measured using a FACSCalibur™ (BD Biosciences) or a Cytoflex Platform (Beckman Coulter). Dose-response binding curves are fitted using GraphPad Prism8 software. In the same manner, CEACAM1, CEACAM6 and other CEACAMs can be characterized.
For the bispecific antibodies AB17L3-1/N, AB71L3-1/N, AB72L3-1/N, AB73L3-1/N the MFI measured for binding to CEACAM5 transfected cells was found between 29000 and 41000 (Table 2). In contrast MFI found by using PEAK cells transfected with CEACAM 1,3,4,6,8 were found below 1000 with the only exception of a strong signal for AB72L3-1/N on CEACAM8 transfected cells. When MFI values obtained on transfected cells expressing any given CEACAM are divided by the values obtained on WT PEAK cells, “factors to PEAK WT” can be calculated (Table 3). With the exception of AB72L3-1/N, the antibodies of the invention are all specific to CEACAM5, as the “factor to PEAK WT” values are all below 2.0.

[2] = target: T2, human CEACAM5 (carcinoembryonic antigen, CEA), cell surface (human, UniProt P06731 35-685); assay: flow cytometry, MKN-45 cells
T2 construct: whole, on cells; also called CD66e
T2 sequence (looked up): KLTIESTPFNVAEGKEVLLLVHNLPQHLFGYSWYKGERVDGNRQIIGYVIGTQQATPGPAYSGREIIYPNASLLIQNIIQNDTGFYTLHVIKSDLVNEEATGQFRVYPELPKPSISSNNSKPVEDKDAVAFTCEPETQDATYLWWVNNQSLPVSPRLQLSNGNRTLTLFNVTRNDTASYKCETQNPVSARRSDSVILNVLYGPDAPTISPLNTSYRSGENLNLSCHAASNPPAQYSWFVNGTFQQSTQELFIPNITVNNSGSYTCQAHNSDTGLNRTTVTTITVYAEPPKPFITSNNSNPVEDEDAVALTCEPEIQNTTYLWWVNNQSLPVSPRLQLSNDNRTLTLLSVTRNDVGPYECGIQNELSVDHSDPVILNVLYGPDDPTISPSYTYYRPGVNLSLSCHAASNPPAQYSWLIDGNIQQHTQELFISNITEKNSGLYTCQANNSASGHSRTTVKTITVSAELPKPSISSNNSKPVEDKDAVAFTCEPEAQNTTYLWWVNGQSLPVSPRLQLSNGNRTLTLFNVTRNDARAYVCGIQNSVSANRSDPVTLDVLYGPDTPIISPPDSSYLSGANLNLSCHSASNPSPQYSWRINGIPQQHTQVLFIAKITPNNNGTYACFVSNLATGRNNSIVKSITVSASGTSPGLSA
Source text: Examples of cells that can be used include CEACAM5-positive cell lines such as the gastric adenocarcinoma cell line MKN45 (expressing 155′000 CEACAM5 molecules per cell), or the pancreatic adenocarcinoma cell line HPAF-II (expressing 108′000 CEACAM5 molecules per cell) or the colorectal adenocarcinoma cell line LS174T (expressing 26′000 CEACAM5 molecules per cell) and CEACAM5-negative cell lines, such as the lung carcinoma cell line A549 and the MKN45 CEACAM5-knock out cell line generated by CRISPR-CAS9 methodology. Cell staining and binding assessment can be performed as described above. Binding of the bsAb of the invention at 200 nM, 1000 nM and 5000 nM is 40% and higher compared to binding of TCB2014 (see Table 4 and also FIGS. 11 and 14).

[3] = target: T2, human CEACAM5 (carcinoembryonic …); assay: cell-based or functional assay
[4] = target: T3, shed soluble CEACAM5 (sCEA) (human, UniProt P06731 35-685, limits assumed); assay: cell-based or functional assay
T3 sequence (looked up): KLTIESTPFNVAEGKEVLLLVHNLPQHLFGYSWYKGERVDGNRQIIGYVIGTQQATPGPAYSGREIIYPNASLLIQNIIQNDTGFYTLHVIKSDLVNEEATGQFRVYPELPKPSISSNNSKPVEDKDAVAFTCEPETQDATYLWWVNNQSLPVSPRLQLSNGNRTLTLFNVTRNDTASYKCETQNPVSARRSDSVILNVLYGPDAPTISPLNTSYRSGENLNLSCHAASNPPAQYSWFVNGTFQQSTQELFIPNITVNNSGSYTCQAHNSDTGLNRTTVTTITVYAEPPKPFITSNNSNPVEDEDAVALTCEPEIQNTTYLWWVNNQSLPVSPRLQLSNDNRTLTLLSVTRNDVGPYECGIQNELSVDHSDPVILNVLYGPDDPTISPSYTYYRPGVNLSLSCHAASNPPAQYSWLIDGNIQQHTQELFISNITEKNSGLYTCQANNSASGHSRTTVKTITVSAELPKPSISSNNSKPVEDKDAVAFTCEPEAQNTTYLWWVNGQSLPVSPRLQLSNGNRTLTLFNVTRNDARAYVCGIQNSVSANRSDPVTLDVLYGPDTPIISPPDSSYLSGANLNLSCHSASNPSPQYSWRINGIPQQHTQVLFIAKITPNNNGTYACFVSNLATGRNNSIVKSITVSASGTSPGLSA

B1: AB17L3-1/N (bispecific antibody, human IgG1, kappa, lambda, L234A L235A)
heavy: EVQLVESGGGLVQPGGSLKLSCAASGFTFNTYAMNWVRQAPGKGLEWVGRIRSKYNNYATYYADSVKDRFTISRDDSKNTAYLQMNSLKTEDTAVYYCVRHGNFGNSYVSWFAYWGQGTLVTVSSASTKGPSVFPLAPSSKSTSGGTAALGCLVKDYFPEPVTVSWNSGALTSGVHTFPAVLQSSGLYSLSSVVTVPSSSLGTQTYICNVNHKPSNTKVDKRVEPKSCDKTHTCPPCPAPEAAGGPSVFLFPPKPKDTLMISRTPEVTCVVVDVSHEDPEVKFNWYVDGVEVHNAKTKPREEQYNSTYRVVSVLTVLHQDWLNGKEYKCKVSNKALAAPIEKTISKAKGQPREPQVYTLPPSREEMTKNQVSLTCLVKGFYPSDIAVEWESNGQPENNYKTTPPVLDSDGSFFLYSKLTVDKSRWQQGNVFSCSVMHEALHNHYTQKSLSLSPG
light 1: EIVLTQSPATLSLSPGERATLSCRASQSVNSNLNWYQQKPGQAPRLLIYHGSNRATGIPARFSGSGSGTDFTLTISSLEPEDFAVYYCQQFDYFKEHNTFGQGTKVEIKRTVAAPSVFIFPPSDEQLKSGTASVVCLLNNFYPREAKVQWKVDNALQSGNSQESVTEQDSKDSTYSLSSTLTLSKADYEKHKVYACEVTHQGLSSPVTKSFNRGEC
light 2: QTVVTQEPSLTVSPGGTVTLTCRSSTGAVTTSNYANWFQQKPGQAPRGLIGGTNKRAPGTPARFSGSLLGGKAALTLSGAQPEDEAEYYCALWYKQRWVFGGGTKLTVLGQPKAAPSVTLFPPSSEELQANKATLVCLISDFYPGAVTVAWKADSSPVKAGVETTTPSKQSNNKYAASSYLSLTPEQWKSHRSYSCQVTHEGSTVEKTVAPTECS
notes: Kappa-lambda body, lead optimization wave 1
Factor to PEAK WT [1]: 1.2 fold
EC50 [2]: 59.2 nM
Top MFI value [2]: 862000 MFI
binding higher than TCB2014 (at 200 nM, 1000 nM and 5000 nM) [2]: ≥ 40%
Killing EC50, HPAFII cells (TDCC, LDH release) [3]: 0.16 nM
Killing EC50, LS174T cells (TDCC, LDH release) [3]: 0.25 nM
Killing EC50, MKN45 cells (TDCC, LDH release) [3]: 0.11 nM
EC50 fold change compared to no shed CEA condition, sCEA 0 µg/mL (reference) [4]: 1 fold
EC50 fold change compared to no shed CEA condition, sCEA 0.2 µg/mL [4]: 3.2 fold
EC50 fold change compared to no shed CEA condition, sCEA 1 µg/mL [4]: 5 fold
EC50 fold change compared to no shed CEA condition, sCEA 5 µg/mL [4]: 11 fold

B2: AB1L3-1/N (bispecific antibody, human IgG1, kappa, lambda, L234A L235A)
heavy: EVQLVESGGGLVQPGGSLKLSCAASGFTFNTYAMNWVRQAPGKGLEWVGRIRSKYNNYATYYADSVKDRFTISRDDSKNTAYLQMNSLKTEDTAVYYCVRHGNFGNSYVSWFAYWGQGTLVTVSSASTKGPSVFPLAPSSKSTSGGTAALGCLVKDYFPEPVTVSWNSGALTSGVHTFPAVLQSSGLYSLSSVVTVPSSSLGTQTYICNVNHKPSNTKVDKRVEPKSCDKTHTCPPCPAPEAAGGPSVFLFPPKPKDTLMISRTPEVTCVVVDVSHEDPEVKFNWYVDGVEVHNAKTKPREEQYNSTYRVVSVLTVLHQDWLNGKEYKCKVSNKALAAPIEKTISKAKGQPREPQVYTLPPSREEMTKNQVSLTCLVKGFYPSDIAVEWESNGQPENNYKTTPPVLDSDGSFFLYSKLTVDKSRWQQGNVFSCSVMHEALHNHYTQKSLSLSPG
light 1: EIVLTQSPATLSLSPGERATLSCRASQSVNSNLNWYQQKPGQAPRLLIYHGSNRATGIPARFSGSGSGTDFTLTISSLEPEDFAVYYCQQFDLRHEHNTFGQGTKVEIKRTVAAPSVFIFPPSDEQLKSGTASVVCLLNNFYPREAKVQWKVDNALQSGNSQESVTEQDSKDSTYSLSSTLTLSKADYEKHKVYACEVTHQGLSSPVTKSFNRGEC
light 2: QTVVTQEPSLTVSPGGTVTLTCRSSTGAVTTSNYANWFQQKPGQAPRGLIGGTNKRAPGTPARFSGSLLGGKAALTLSGAQPEDEAEYYCALWYKQRWVFGGGTKLTVLGQPKAAPSVTLFPPSSEELQANKATLVCLISDFYPGAVTVAWKADSSPVKAGVETTTPSKQSNNKYAASSYLSLTPEQWKSHRSYSCQVTHEGSTVEKTVAPTECS
notes: Kappa-lambda body: common heavy chain (hIgG1 L234A+L235A+P329A), kappa CEA light chain AB1, lambda CD3 light chain L3-1 (1A4); also called parental KL bispecific antibody
Factor to PEAK WT [1]: 1 fold

B3: AB71L3-1/N (bispecific antibody, human IgG1, kappa, lambda, L234A L235A)
heavy: EVQLVESGGGLVQPGGSLKLSCAASGFTFNTYAMNWVRQAPGKGLEWVGRIRSKYNNYATYYADSVKDRFTISRDDSKNTAYLQMNSLKTEDTAVYYCVRHGNFGNSYVSWFAYWGQGTLVTVSSASTKGPSVFPLAPSSKSTSGGTAALGCLVKDYFPEPVTVSWNSGALTSGVHTFPAVLQSSGLYSLSSVVTVPSSSLGTQTYICNVNHKPSNTKVDKRVEPKSCDKTHTCPPCPAPEAAGGPSVFLFPPKPKDTLMISRTPEVTCVVVDVSHEDPEVKFNWYVDGVEVHNAKTKPREEQYNSTYRVVSVLTVLHQDWLNGKEYKCKVSNKALAAPIEKTISKAKGQPREPQVYTLPPSREEMTKNQVSLTCLVKGFYPSDIAVEWESNGQPENNYKTTPPVLDSDGSFFLYSKLTVDKSRWQQGNVFSCSVMHEALHNHYTQKSLSLSPG
light 1: EIVLTQSPATLSLSPGERATLSCRASQSVNSNLNWYQQKPGQAPRLLIYHSSNRPHGIPARFSGSGSGTDFTLTISSLEPEDFAVYYCQQFDYFKEHNTFGQGTKVEIKRTVAAPSVFIFPPSDEQLKSGTASVVCLLNNFYPREAKVQWKVDNALQSGNSQESVTEQDSKDSTYSLSSTLTLSKADYEKHKVYACEVTHQGLSSPVTKSFNRGEC
light 2: QTVVTQEPSLTVSPGGTVTLTCRSSTGAVTTSNYANWFQQKPGQAPRGLIGGTNKRAPGTPARFSGSLLGGKAALTLSGAQPEDEAEYYCALWYKQRWVFGGGTKLTVLGQPKAAPSVTLFPPSSEELQANKATLVCLISDFYPGAVTVAWKADSSPVKAGVETTTPSKQSNNKYAASSYLSLTPEQWKSHRSYSCQVTHEGSTVEKTVAPTECS
notes: Kappa-lambda body, lead optimization wave 2
Factor to PEAK WT [1]: 1 fold
EC50 [2]: 34.1 nM
Top MFI value [2]: 833000 MFI
binding higher than TCB2014 (at 200 nM, 1000 nM and 5000 nM) [2]: ≥ 40%
Killing EC50, HPAFII cells (TDCC, LDH release) [3]: 0.16 nM
Killing EC50, LS174T cells (TDCC, LDH release) [3]: 0.16 nM
Killing EC50, MKN45 cells (TDCC, LDH release) [3]: 0.09 nM
EC50 fold change compared to no shed CEA condition, sCEA 0 µg/mL (reference) [4]: 1 fold
EC50 fold change compared to no shed CEA condition, sCEA 0.2 µg/mL [4]: 0.6 fold
EC50 fold change compared to no shed CEA condition, sCEA 1 µg/mL [4]: 4.2 fold
EC50 fold change compared to no shed CEA condition, sCEA 5 µg/mL [4]: 5.5 fold
